{"source": "paper PMC6526949", "about": "(Biochemistry, 2018)", "proteins": {"B1": {"name": "Escherichia coli O-acetylserine sulfhydrylase isoenzyme B (CysM) (enzyme, UniProt P16703 1-303, looked up)", "chain": "MSTLEQTIGNTPLVKLQRMGPDNGSEVWLKLEGNNPAGSVKDRAALSMIVEAEKRGEIKPGDVLIEATSGNTGIALAMIAALKGYRMKLLMPDNMSQERRAAMRAYGAELILVTKEQGMEGARDLALEMANRGEGKLLDQFNNPDNPYAHYTTTGPEIWQQTGGRITHFVSSMGTTGTITGVSRFMREQSKPVTIVGLQPEEGSSIPGIRRWPTEYLPGIFNASLVDEVLDIHQRDAENTMRELAVREGIFCGVSSGGAVAGALRVAKANPDAVVVAIICDRGDRYLSTGVFGEEHFSQGAGI", "modifications": "PLP cofactor ligated through a Schiff base to the ε-amino group of Lysine-41 (PLP:CysM ratio approximately 0.57:1)"}}, "target": "the molecule itself", "test": "SEC", "data": [{"protein": "B1", "values": [{"measurement": "stoichiometry N", "value": 2}]}]}
